This experiment deals with IgG1-S4497 (human). Put plainly: cell-based or functional assay.

We go through one molecule from patent publication US20200123237A1.

B1: IgG1-S4497 (antibody, not shown: a dimerising Fc or GST)
heavy: EVQLVESGGGLVQPGGSLRLSCSASGFSFNSFWMHWVRQVPGKGLVWISFTNNEGTTTAYADSVRGRFIISRDNAKNTLYLEMNNLRGEDTAVYYCARGDGGLDDWGQGTLVTVSS
light: DIQLTQSPDSLAVSLGERATINCKSSQSIFRTSRNKNLLNWYQQRPGQPPRLLIHWASTRKSGVPDRFSGSGFGTDFTLTITSLQAEDVAIYYCQQYFSPPYTFGQGTKLEIK
Regarding B1, the EC50 of C3b deposition on Wood 46, purified classical pathway system was found to be 0.668 µg/mL; the EC50 of C4b deposition on Wood 46, purified classical pathway system came to 0.886 µg/mL; the EC50 of neutrophil-mediated phagocytic uptake of Wood 46, NHS devoid of IgG and IgM is 0.144 µg/mL; the EC50 of neutrophil-mediated phagocytic uptake of Wood 46, intact NHS worked out at 0.096 µg/mL.
